Test results published in the supplement of paper PMC10567573.

B1: GMCL1 (parent)
chain: RPDTGDDAAGHGFCYCAGSHKRKR

Variants of: B1
Assay: protein stability index of a GFP-peptide fusion (GPS, HEK-293T) (PSI 1-6); higher = more stable
Conditions: c terminus: a fixed tail appended
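Note: lentivirally expressed fusions sorted by FACS into six bins by GFP to DsRed ratio, PSI derived from sequencing read proportions per bin multiplied by bin number.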

Protein stability index of substitutions, site by site:
R24: I 3.33; A 3.53; D 4.3; C 4.32; G 3.4; H 4.13; Q 3.35; E 3.64; L 2.66; M 2.77; K 3.65; T 3.04; S 3.47; W 2.87; N 3.84; V 3.38; P 3.94; F 3.18; Y 3.75
C16: N 4.56; K 4.81; I 4.57; Y 4.09; P 4.71; G 4.85; H 3.87; T 4.74; R 4.59; L 4.11; Q 4.92; M 4.17; S 4.97; W 4.36; V 4.72
K21: H 2.35; V 2.79; M 2.65; G 2.39; P 3.03; E 2.57; A 3.07; F 2.52; T 2.74; S 2.34; Y 2.11; I 2.01; C 3.23; Q 2.79; N 2.83; L 2.69; W 2.29; R 2.67; D 3.15
S19: V 2.72; Q 3.16; I 2.96; H 2.77; D 2.86; M 2.52; A 3.62; G 3.14; Y 2.53; F 2.63; P 2.45; K 3.78; L 2.82; E 2.98; N 3.31; W 2.45; R 3.26; T 3.65; C 3.82
G18: R 3.29; C 2.77; T 3.53; H 2.53; E 3.6; M 2.71; Q 3.12; N 2.85; L 2.66; Y 2.98; P 3.53; F 2.7; V 2.75; S 3.36; D 2.84; K 3.58; A 3.24; W 2.09; I 2.9
R22: E 3.56; F 1.96; M 2.12; V 2.65; T 2.64; N 2.62; G 2.43; S 2.77; Q 2.66; K 3.08; W 2.6; I 3; Y 2.01; A 2.76; H 2.56; C 3.59; L 2.57; P 2.79; D 3.55
K23: E 2.94; F 1.9; H 3.1; A 2.2; V 2.33; M 2.32; S 3.12; Q 2.92; C 3.71; D 3.33; I 3.04; T 2.18; Y 2.22; R 2.37; W 1.95; P 2.84; L 2.16; G 2.9; N 3.03
A17: L 2.59; M 2.99; W 3.01; T 3.13; S 2.77; K 2.82; V 2.56; P 3.7; Y 3.25; I 2.97; N 3.61; E 3.61; R 2.9; C 2.05; Q 3.02; H 2.29; F 2.2; D 3.68; G 2.9
H20: M 3.03; L 3.18; A 3.15; E 3.3; F 3.24; S 3.95; N 3.04; D 3.35; R 3.31; P 2.85; Q 3.59; K 4.09; I 3.9; C 3.26; W 2.62; Y 3.12; V 2.79; G 3.41; T 3.05
